From patent US20240150440A1 (LUMEN BIOSCIENCE, published 2024)

B1: MBP-R5A-A5-H6 (VHH, not shown: large carriers; small tags and cut ends)
VHH: QVQLVESGGGLVQPGGSLRLSCAASGSAFATNGLHWFRQAPGKQREFVAGITSNGSINYKDSVKGRFTISRDNAKNTVYLQMNSLKPEDTAVYYCTALLMSYGGGEEYDYWGQGTQVTVSS
B2: MBP-5HVZ-R5A-A5-H6 (VHH, not shown: large carriers; small tags and cut ends)
VHH: B1 VHH
B3: MBP-5HVZ-R5A-D4-H6 (VHH, not shown: large carriers; small tags and cut ends)
VHH: QVQLVESGGGLVQPGGSLRLSCAASGSAMMINRTHWFRQAPGKEREGVAGITWQGSTYYADSVKGRFTISRDNAKNTVYLQMNSLKPEDTAVYYCNAVAPVHENENYWGQGTQVTVSS
B4: MBP-5HVZ-R5A-A1-H6 (VHH, not shown: large carriers; small tags and cut ends)
VHH: QVQLVESGGGLVQPGGSLRLSCAASGAELSYTAIHWFRQAPGKQREFVATINSGGSSYYADSVKGRFTISRDNAKNTVYLQMNSLKPEDTAVYYCTALLDSTYDYWGQGTQVTVSS
B5: MBP-5HVZ-R5A-D6-H6 (VHH, not shown: large carriers; small tags and cut ends)
VHH: QVQLVESGGGLVQPGGSLRLSCAASGNDWYINSAHWYRQAPGKEREFVASVSRGGSNNYRDSVKGRFTISRDNAKNTVYLQMNSLKPEDTAVYYCAALLETSSGDYTYWGQGTQVTVSS
B6: R5A-C5 (competition ELISA sample) (VHH)
VHH: QVQLVESGGGLVQPGGSLRLSCAASGDIFSINALHWFRQAPGKQREEVAAITSGGSTGYADSVKGRFTISRDNAKNTVYLQMNSLKPEDTAVYYCAAQQARGGLDSDYWGQGTQVTVSS
B7: MBP-5HVZ-R2E-F4-H6 (VHH, not shown: large carriers; small tags and cut ends)
VHH: QVQLVESGGGLVQPGGSLRLSCAASGETFSSNAMHWFRQAPGKGREFVAAITSGGNDNYSDSVKGRFTISRDNAKNTVYLQMNSLKPEDTAVYYCNAPATEDTSHYPRNYWGQGTQVTVSS
B8: MBP-5HVZ-R5A-B3-H6 (VHH, not shown: large carriers; small tags and cut ends)
VHH: QVQLVESGGGLVQPGGSLRLSCAASGQLDRSNAMAWFRQAPGKGREWVASITSGASTQYADSVKGRFTISRDNAKNTVYLQMNSLKPEDTAVYYCAADRYRAIQRTQYSWGQGTQVTVSS
B9: PP1105 MBP-5HVZ-PAPA-RN-20-H6 (VHH)
VHH: QVQLVESGGGLVQPGGSLRLSCAASGNYFEINKMHWFRQAPGKQREFVATIGSGGSTAYADSVKGRFTISRDNAKNTVYLQMNSLKPEDTAVYYCNALIYLADRRDGYYSYDYWGQGTQVTVSS
notes: Form: Dimer
B10: PP1107 MBP-5HVZ-PAPA-RN-22-H6 (VHH)
VHH: QVQLVESGGGLVQPGGSLRLSCAASGSISEINLLHWFRQAPGKQREWVATMTSGGSTDYADSVKGRFTISRDNAKNTVYLQMNSLKPEDTAVYYCAADEFTKYGHGRYWGQGTQVTVSS
notes: Form: Dimer
B11: PP912 MBP-5HVZ-S2b-G8-H6 (VHH)
VHH: QVQLVESGGGLVQPGGSLRLSCAASGSIQSYEAMHWFRQAPGKAREWVAVITWGDSTQYGDSVKGRFTISRDNAKNTVYLQMNSLKPEDTAVYYCAADVRQGYSSWGQGTQVTVSS
notes: Form: Dimer
B12: PP1110 MBP-5HVZ-PAPA-RN-26-H6 (VHH)
VHH: QVQLVESGGGLVQPGGSLRLSCAASGSISSINSMHWYRQAPGKEREWVAAVSSYGSDYYADSVKGRFTISRDNAKNTVYLQMNSLKPEDTAVYYCAARTVTGFTYGDYWGQGTQVTVSS
notes: Form: Dimer
B13: PP1154 MBP-5HVZ-PAPA-R5d-G1-H6 (VHH)
VHH: QVQLVESGGGLVQPGGSLRLSCAASGSIFGINDVHWFRQAPGKEREFVATITNGLSARYKDSVKGRFTISRDNAKNTVYLQMNSLKPEDTAVYYCAAQVYITTYELYDYWGQGTQVTVSS
notes: Form: Dimer
B14: PP1103 MBP-5HVZ-PAPA-RN-18-H6 (VHH)
VHH: QVQLVESGGGLVQPGGSLRLSCAASGYYFQIVAMHWYRQAPGKEREGVAGITSTGSTYYGDSVKGRFTISRDNAKNTVYLQMNSLKPEDTAVYYCNAVSTDAQGAAEYWGQGTQVTVSS
notes: Form: Dimer
B15: PP1153 MBP-5HVZ-PAPA-R5d-D4-H6 (VHH)
VHH: QVQLVESGGGLVQPGGSLRLSCAASGSDFTINAMHWFRQAPGKQREFVATITSTSSTAYRDSVKGRFTISRDNAKNTVYLQMNSLKPEDTAVYYCAAFAVRDADTAGWTARDYWGQGTQVTVSS
notes: Form: Dimer
B16: PP1106 MBP-5HVZ-PAPA-RN-21-H6 (VHH)
VHH: QVQLVESGGGLVQPGGSLRLSCAASGLQTSDNAMHWFRQAPGKNRELVAGLTSGTSRNYGDSVKGRFTISRDNAKNTVYLQMNSLKPEDTAVYYCAAFPDVGDASSIGFVYWGQGTQVTVSS
notes: Form: Dimer
B17: PP1102 MBP-5HVZ-PAPA-RN-17-H6 (VHH)
VHH: QVQLVESGGGLVQPGGSLRLSCAASGSMYSRAVMHWFRQAPGKEREGVASIGRTGDSYYADSVKGRFTISRDNAKNTVYLQMNSLKPEDTAVYYCAADNLDVVYGNRYWGQGTQVTVSS
notes: Form: Dimer
B18: PP1111 MBP-5HVZ-PAPA-RN-27-H6 (VHH)
VHH: QVQLVESGGGLVQPGGSLRLSCAASGPQFSSNAVSWFRQAPGKEREWVAGITSGGSTDYADSVKGRFTISRDNAKNTVYLQMNSLKPEDTAVYYCTAPSVSDADRRTRDYWGQGTQVTVSS
notes: Form: Dimer
B19: PP1104 MBP-5HVZ-PAPA-RN-19-H6 (VHH)
VHH: QVQLVESGGGLVQPGGSLRLSCAASGIDDSIGAMHWFRQAPGKGREFVAALSGTGTTSYADSVKGRFTISRDNAKNTVYLQMNSLKPEDTAVYYCAAAFPAGGDYWGQGTQVTVSS
notes: Form: Dimer
B20: PP1101 MBP-5HVZ-PAPA-RN-16-H6 (VHH)
VHH: QVQLVESGGGLVQPGGSLRLSCAASGADFSSNAMHWFRQAPGKAREFVASIDSDKSGYYADSVKGRFTISRDNAKNTVYLQMNSLKPEDTAVYYCNAYSGTDNYGYDYWGQGTQVTVSS
notes: Form: Dimer
B21: PP1099 MBP-5HVZ-PAPA-RN-12-H6 (VHH)
VHH: QVQLVESGGGLVQPGGSLRLSCAASGSSFEGNAVHWFRQAPGKNREFVATITTSTSYYYADSVKGRFTISRDNAKNTVYLQMNSLKPEDTAVYYCAARLKDRGPQSEYDYWGQGTQVTVSS
notes: Form: Dimer
B22: PP1109 MBP-5HVZ-PAPA-RN-25-H6 (VHH)
VHH: QVQLVESGGGLVQPGGSLRLSCAASGEDYSYNAAHWFRQAPGKEREWVAAINSGGGTYYADSVKGRFTISRDNAKNTVYLQMNSLKPEDTAVYYCAYLGALDRDGYDAWGQGTQVTVSS
notes: Form: Dimer
B23: PP930 MBP-5HVZ-R2b-D4-H6 (VHH)
VHH: QVQLVESGGGLVQPGGSLRLSCAASGSYASIASMHWFRQAPGKQREFVAGLTSGGSRIYGDSVKGRFTISRDNAKNTVYLQMNSLKPEDTAVYYCTALILHYAGMYDYWGQGTQVTVSS
notes: Form: Dimer
B24: PP1108 MBP-5HVZ-PAPA-RN-23-H6 (VHH)
VHH: QVQLVESGGGLVQPGGSLRLSCAASGGEKSISAAHWYRQAPGKEREFVAAITAASTTSYADSVKGRFTISRDNAKNTVYLQMNSLKPEDTAVYYCTAVLYDSYDYWGQGTQVTVSS
notes: Form: Dimer

These binders were tested against T1, recombinant SARS-CoV-2 RBD with C-terminal AviTag (SARS-CoV-2, UniProt P0DTC2 319-541) (assay: not given).
With B1 the Kd was about 920 nM.
B2 was tested, and the IC50 was 4.4 nM and the Kd was 24.7 nM.
In the case of B3, the IC50 is reported as 5.7 nM and the Kd is reported as 21.1 nM.
With B4 the IC50 was 3.4 nM and the Kd was 29 nM.
Work on B5 yielded an IC50 of 223 nM and a Kd of 35 nM.
In the case of B6, the IC50 is reported as 1.4 nM and the Kd is reported as 7.04 nM.
Binder B7 has an IC50 of 6.3 nM and a Kd of 11.4 nM.
Binder B8 has an IC50 of 35.9 nM and a Kd of about 1200 nM.

These binders were tested against SARS-COV-2 Wuhan Reference RBD (SARS-CoV-2, UniProt P0DTC2 319-541) (assay: ELISA, RBD coated).
B9 gave an EC50 of 1.24 nM.
For B10, the EC50 was 0.27 nM.
With B11 the EC50 was 2.33 nM.
B12 gave an EC50 of 3.5 nM.
With B13 the EC50 was 2.42 nM.
B14 showed an EC50 of 2.4 nM.
B15 was tested, and the EC50 was 1.23 nM.
For B16, the EC50 was 2.52 nM.
Binder B17 has an EC50 of 0.97 nM.
B18 gave an EC50 of 0.33 nM.
In the case of B19, the EC50 is reported as 1.21 nM.
B20 gave an EC50 of 1.56 nM.
With B21 the EC50 was 4.24 nM.
B22 showed an EC50 of 1.06 nM.
B23 was tested, and the EC50 was 3.18 nM.
For B24, the EC50 was 2.61 nM.

The binders below were run against T1, recombinant SARS-CoV-2 RBD with … (assay: ELISA, competition with coated ACE2-Fc for RBD [Cont. 9]).
B9 gave an IC50 of 7.2 nM.
Binder B10 has an IC50 of 3.9 nM.
B12 was tested, and the IC50 was 156 nM.
B14 was tested, and the IC50 was 53.3 nM.
B16 showed an IC50 of 9.7 nM.
Work on B17 yielded an IC50 of 2.4 nM.
Work on B18 yielded an IC50 of 9.4 nM.
Binder B19 has an IC50 of 3.5 nM.
In the case of B20, the IC50 is reported as 13.9 nM.
B22 gave an IC50 of 29.6 nM.
Work on B24 yielded an IC50 of 380 nM.
